No end group written: not given here.
Experiments:
[1] = peptide treatment of non-tumor-bearing mice; format: in vivo
Protocol: To further determine the impact of peptide treatment on mouse physiology, non-tumor-bearing mice were treated with K59-78^TAT or K90-114^TAT.

[2] = molecular target: T1, human voltage-gated potassium channel subfamily H member 5 (KCNH5, EAG2) (human, UniProt Q8NCM2 1-988); assay: co-IP of overexpressed proteins in HEK293T cells
T1 construct: Full length EAG2 expressed in HEK293T cells and tested by co-IP from lysates; This id also stands for endogenous human EAG2 in lysates of GBM cells and of human fetal neural progenitor cells; also called full length EAG2
T1 sequence: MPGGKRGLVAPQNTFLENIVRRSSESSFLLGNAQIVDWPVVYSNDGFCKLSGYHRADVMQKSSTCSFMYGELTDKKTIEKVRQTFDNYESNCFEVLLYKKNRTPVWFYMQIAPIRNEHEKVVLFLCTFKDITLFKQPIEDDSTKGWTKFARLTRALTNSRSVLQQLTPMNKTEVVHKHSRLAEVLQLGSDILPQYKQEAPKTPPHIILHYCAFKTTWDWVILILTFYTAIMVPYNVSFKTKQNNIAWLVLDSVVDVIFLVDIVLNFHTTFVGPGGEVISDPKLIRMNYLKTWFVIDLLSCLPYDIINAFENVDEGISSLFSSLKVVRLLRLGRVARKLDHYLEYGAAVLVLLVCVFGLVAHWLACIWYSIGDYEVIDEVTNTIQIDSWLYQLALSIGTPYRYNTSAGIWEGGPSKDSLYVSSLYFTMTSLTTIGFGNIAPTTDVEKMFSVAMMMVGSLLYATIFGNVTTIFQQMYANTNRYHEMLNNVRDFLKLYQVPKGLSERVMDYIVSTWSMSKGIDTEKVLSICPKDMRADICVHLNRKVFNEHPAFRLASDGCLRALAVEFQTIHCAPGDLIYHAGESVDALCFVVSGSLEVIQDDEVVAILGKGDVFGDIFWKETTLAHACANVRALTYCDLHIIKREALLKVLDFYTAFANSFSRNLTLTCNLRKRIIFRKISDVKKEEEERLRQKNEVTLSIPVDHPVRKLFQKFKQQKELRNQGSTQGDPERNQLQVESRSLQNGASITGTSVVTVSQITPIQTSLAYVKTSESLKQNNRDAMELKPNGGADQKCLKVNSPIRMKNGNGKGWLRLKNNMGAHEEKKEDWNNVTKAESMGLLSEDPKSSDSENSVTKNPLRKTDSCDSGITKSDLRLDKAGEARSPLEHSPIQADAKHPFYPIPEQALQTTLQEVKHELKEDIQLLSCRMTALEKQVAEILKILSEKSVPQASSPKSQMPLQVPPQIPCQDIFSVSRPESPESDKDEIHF

[3] = molecular target: T1, human voltage-gated potassium channel …; assay: co-IP in HEK293T cells
[4] = molecular target: T1, human voltage-gated potassium channel …; assay: co-IP in HEK293T cells (FIG. 26)
Protocol: Co-IPs of overexpressed proteins are performed using HEK293T cells.

## GRKKRRQRRRPQGSGSGSYAAGKAEVVLGNIIKKKGWRRSSLV [K90-114^TAT]
[1]
  pathological features of internal organs (heart, kidney, liver, lung): did not reveal pathological features
[1]; K59-78^TAT versus K90-114^TAT
  body weight: comparable body weight
  survival: comparable

B1: Kvß2 truncation mutant f6 (317-367 aa) (other)
chain: VSSVLLGASNADQLMENIGAIQVLPKLSSSIIHEIDSILGNKPYSKKDYRS
notes: Expressed in HEK293T cells
[2]
  binding result: no binding

B2: Kvß2 truncation mutant f3 (239-367 aa) (other)
chain: GAMTWSPLACGIVSGKYDSGIPPYSRASLKGYQWLKDKILSEEGRRQQAKLKELQAIAERLGCTLPQLAIAWCLRNEGVSSVLLGASNADQLMENIGAIQVLPKLSSSIIHEIDSILGNKPYSKKDYRS
notes: Expressed in HEK293T cells
[2]
  binding result: no binding

B3: Kvβ2 isoform 3 (other, human, UniProt Q13303-3 1-415, looked up)
chain: MLSMTYSESLRSVSSRCHSEWALHPVRQTDTLELQRLREVRAAAQARNMESFLRMHGLSLDGCTAQRTGMKYRNLGKSGLRVSCLGLGTWVTFGGQITDEMAEQLMTLAYDNGINLFDTAEVYAAGKAEVVLGNIIKKKGWRRSSLVITTKIFWGGKAETERGLSRKHIIEGLKASLERLQLEYVDVVFANRPDPNTPMEGDPFSSSKSRTFIIEETVRAMTHVINQGMAMYWGTSRWSSMEIMEAYSVARQFNLTPPICEQAEYHMFQREKVEVQLPELFHKIGVGAMTWSPLACGIVSGKYDSGIPPYSRASLKGYQWLKDKILSEEGRRQQAKLKELQAIAERLGCTLPQLAIAWCLRNEGVSSVLLGASNADQLMENIGAIQVLPKLSSSIIHEIDSILGNKPYSKKDYRS
notes: Only the isoform number is printed; Whether it matches the UniProt isoform numbering is not confirmed
[3]
  binding result: no binding

B4: Kvß2 isoform 4 (other)
chain: MAEQLMTLAYDNGINLFDTAEVYAAGKAEVVLGNIIKKKGWRRSSLVITTKIFWGGKAETERGLSRKHIIEGLKASLERLQLEYVDVVFANRPDPNTPMEETVRAMTHVINQGMAMYWGTSRWSSMEIMEAYSVARQFNLTPPICEQAEYHMFQREKVEVQLPELFHKIGVGAMTWSPLACGIVSGKYDSGIPPYSRASLKGYQWLKDKILSEEGRRQQAKLKELQAIAERLGCTLPQLAIAWCLRNEGVSSVLLGASNADQLMENIGAIQVLPKLSSSIIHEIDSILGNKPYSKKDYRS
notes: Expressed in HEK293T cells; also called Kvβ2 isoform 4; Kvß2 splice isoform 4
[3]
  binding result: binds

B5: Kvß2 truncation mutant f1 (1-158 aa) (other)
chain: MYPESTTGSPARLSLRQTGSPGMIYSTRYGSPKRQLQFYRNLGKSGLRVSCLGLGTWVTFGGQITDEMAEQLMTLAYDNGINLFDTAEVYAAGKAEVVLGNIIKKKGWRRSSLVITTKIFWGGKAETERGLSRKHIIEGLKASLERLQLEYVDVVFAN
notes: Expressed in HEK293T cells
[2]
  binding result: binds

B6: Kvß2 truncation mutant f8 (1-342 aa) (other)
chain: MYPESTTGSPARLSLRQTGSPGMIYSTRYGSPKRQLQFYRNLGKSGLRVSCLGLGTWVTFGGQITDEMAEQLMTLAYDNGINLFDTAEVYAAGKAEVVLGNIIKKKGWRRSSLVITTKIFWGGKAETERGLSRKHIIEGLKASLERLQLEYVDVVFANRPDPNTPMEETVRAMTHVINQGMAMYWGTSRWSSMEIMEAYSVARQFNLTPPICEQAEYHMFQREKVEVQLPELFHKIGVGAMTWSPLACGIVSGKYDSGIPPYSRASLKGYQWLKDKILSEEGRRQQAKLKELQAIAERLGCTLPQLAIAWCLRNEGVSSVLLGASNADQLMENIGAIQVLPK
notes: Expressed in HEK293T cells
[2]
  binding result: binds

B7: Kvβ2 isoform 5 (other, human, UniProt Q13303-5 1-395, looked up)
chain: MYPESTTGSPARLSLRQTGSPGMIYSTRYGSPKRQLQFYRNLGKSGLRVSCLGLGTWVTFGGQITDEMAEQLMTLAYDNGINLFDTAEVYAAGKAEVVLGNIIKKKGWRRSSLVITTKIFWGGKAETERGLSRKHIIEGLKASLERLQLEYVDVVFANRPDPNTPMEETVRAMTHVINQGMAMYWGTSRWSSMEIMEAYSVARQFNLTPPICEQAEYHMFQREKVEVQLPELFHKIGVGAMTWSPLACGIVSGKYDSGIPPYSRASLKGYQWLKDKILSEEGRRQQAKLKELQAIAERLGCTLPQLAIAWCLRNEGVSSVLLGASNADQLMENIGAIQVRVRGPAGQRAHPSPSPVQCILPGSSCVPGSVLGTQDAPVNHQSCAPGELAFQQEQT
notes: as for B3
[3]
  binding result: no binding

B8: Kvß2 truncation mutant f4 (79-158 aa) (other)
chain: NGINLFDTAEVYAAGKAEVVLGNIIKKKGWRRSSLVITTKIFWGGKAETERGLSRKHIIEGLKASLERLQLEYVDVVFAN
notes: Expressed in HEK293T cells
[4]
  binding result: binds

B9: Kvß2 truncation mutant f5 (239-316 aa) (other)
chain: GAMTWSPLACGIVSGKYDSGIPPYSRASLKGYQWLKDKILSEEGRRQQAKLKELQAIAERLGCTLPQLAIAWCLRNEG
notes: Expressed in HEK293T cells
[2]
  binding result: no binding

B10: Kvß2 truncation mutant f9 (1-355 aa) (other)
chain: MYPESTTGSPARLSLRQTGSPGMIYSTRYGSPKRQLQFYRNLGKSGLRVSCLGLGTWVTFGGQITDEMAEQLMTLAYDNGINLFDTAEVYAAGKAEVVLGNIIKKKGWRRSSLVITTKIFWGGKAETERGLSRKHIIEGLKASLERLQLEYVDVVFANRPDPNTPMEETVRAMTHVINQGMAMYWGTSRWSSMEIMEAYSVARQFNLTPPICEQAEYHMFQREKVEVQLPELFHKIGVGAMTWSPLACGIVSGKYDSGIPPYSRASLKGYQWLKDKILSEEGRRQQAKLKELQAIAERLGCTLPQLAIAWCLRNEGVSSVLLGASNADQLMENIGAIQVLPKLSSSIIHEIDSIL
notes: Expressed in HEK293T cells
[2]
  binding result: no binding

B11: Kvß2 truncation mutant f2 (79-316 aa) (other)
chain: NGINLFDTAEVYAAGKAEVVLGNIIKKKGWRRSSLVITTKIFWGGKAETERGLSRKHIIEGLKASLERLQLEYVDVVFANRPDPNTPMEETVRAMTHVINQGMAMYWGTSRWSSMEIMEAYSVARQFNLTPPICEQAEYHMFQREKVEVQLPELFHKIGVGAMTWSPLACGIVSGKYDSGIPPYSRASLKGYQWLKDKILSEEGRRQQAKLKELQAIAERLGCTLPQLAIAWCLRNEG
notes: Expressed in HEK293T cells
[4]
  binding result: binds

B12: Kvβ2 isoform 2 (other, human, UniProt Q13303-2 1-353, looked up)
chain: MYPESTTGSPARLSLRQTGSPGMIYRNLGKSGLRVSCLGLGTWVTFGGQITDEMAEQLMTLAYDNGINLFDTAEVYAAGKAEVVLGNIIKKKGWRRSSLVITTKIFWGGKAETERGLSRKHIIEGLKASLERLQLEYVDVVFANRPDPNTPMEETVRAMTHVINQGMAMYWGTSRWSSMEIMEAYSVARQFNLTPPICEQAEYHMFQREKVEVQLPELFHKIGVGAMTWSPLACGIVSGKYDSGIPPYSRASLKGYQWLKDKILSEEGRRQQAKLKELQAIAERLGCTLPQLAIAWCLRNEGVSSVLLGASNADQLMENIGAIQVLPKLSSSIIHEIDSILGNKPYSKKDYRS
notes: as for B3
[3]
  binding result: no binding

B13: Kvß2 truncation mutant f7 (1-316 aa) (other)
chain: MYPESTTGSPARLSLRQTGSPGMIYSTRYGSPKRQLQFYRNLGKSGLRVSCLGLGTWVTFGGQITDEMAEQLMTLAYDNGINLFDTAEVYAAGKAEVVLGNIIKKKGWRRSSLVITTKIFWGGKAETERGLSRKHIIEGLKASLERLQLEYVDVVFANRPDPNTPMEETVRAMTHVINQGMAMYWGTSRWSSMEIMEAYSVARQFNLTPPICEQAEYHMFQREKVEVQLPELFHKIGVGAMTWSPLACGIVSGKYDSGIPPYSRASLKGYQWLKDKILSEEGRRQQAKLKELQAIAERLGCTLPQLAIAWCLRNEG
notes: Expressed in HEK293T cells
[2]
  binding result: binds

Reference: patent US20240417439A1, “RECOMBINANT POLYPEPTIDE FOR DISRUPTING INTERACTION OF EAG2 AND KVß2 AND THERAPEUTIC APPLICATIONS THEREOF IN CANCER TREATMENT” (The Hospital for Sick Children, priority 2021, published 2024)
